Results as given in patent US8975044B2, “Polynucleotides encoding for frizzled-binding agents and uses thereof” (OncoMed Pharmaceuticals, Inc., priority 2008, dated 2015).
Where a chain is given by its changes, count along the chain named.

B1: 18R5: human anti-FZD antibody; VH SEQ ID NO:10 (as 18R8), VL SEQ ID NO:14; binds FZD1, 2, 5, 7, 8 (antibody, V domains shown)
VH: EVQLVESGGGLVQPGGSLRLSCAASGFTFSHYTLSWVRQAPGKGLEWVSVISGDGSYTYYADSVKGRFTISSDNSKNTLYLQMNSLRAEDTAVYYCARNFIKYVFANWGQGTLVTVSS
VL: DIELTQPPSVSVAPGQTARISCSGDNIGSFYVHWYQQKPGQAPVLVIYDKSNRPSGIPERFSGSNSGNTATLTISGTQAEDEADYYCQSYANTLSLVFGGGTKLTVLG
modifications: 18R5/18R8 heavy chain variable region (VH); 18R5 light chain variable region (VL)
B2: 18R8: human anti-FZD antibody from phage display; VH SEQ ID NO:10, VL SEQ ID NO:12; binds FZD1, 2, 5, 7, 8 (antibody, V domains shown)
VH: B1 VH
VL: DIELTQPPSVSVAPGQTARISCSGDKLGKKYASWYQQKPGQAPVLVIYEKDNRPSGIPERFSGSNSGNTATLTISGTQAEDEADYYCSSFAGNSLEVFGGGTKLTVLG
modifications: 18R5/18R8 heavy chain variable region (VH); 18R8 light chain variable region (VL)
B3: 44R24: anti-FZD5/8 IgG antibody, VH SEQ ID NO:85, VL SEQ ID NO:86; ATCC deposit no. PTA-10311 (antibody, V domains shown)
VH: EVQLVESGGGLVQPGGSLRLSCAASGFTFSSYYITWVRQAPGKGLEWVSTISYSSSNTYYADSVKGRFTISRDNSKNTLYLQMNSLRAEDTAVYYCARSIVFDYWGQGTLVTVSS
VL: DIELTQPPSVSVAPGQTARISCSGDALGNRYVYWYQQKPGQAPVLVIPSGIPERFSGSNSGNTATLTISGTQAEDEADYYCGSWDTRPYPKYVFGGGTKLTVLG
modifications: 44R24 VH; 44R24 VL
notes: ATCC deposit no; PTA-10311

Experiments:
Wnt signaling = experiment: Inhibition of Wnt3a-induced Super Top Flash reporter activity in STF-293 cells; format: cell-based, human; details: for IC50: Wnt3a-conditioned medium, 20-0.0003 μg/ml, triplicate
Procedure: STF cells are Human Embryonic Kidney (HEK)-293 cells stably transfected with the Super Top Flash (STF) reporter cassette in which the expression of the Luciferase (Luc) reporter gene is regulated by multiple copies of the TCF binding site upstream of a minimal promoter. A low basal Luc expression can be induced 30-60 fold in response to Wnt3a, providing a large window to assess the inhibitory activity of the anti-Fzd Abs.
To assess the mAbs, STF-293 cells were grown in DMEM-10% FBS. On day 1, 10,000 cells were plated per well in 96-well Optical Bottom White plates (Nunc #165306). The cells were incubated O.N. at 37° C. and 5% CO2. On day 2, the Abs to be tested were diluted to a final concentration of […] using culture medium. Seven 5-fold serial dilutions were performed. The STF-293 cells culture medium was replaced with a mixture containing 50 μA Ab dilution, 25 μA Wnt3a-conditioned medium from Wnt3a stable L-cells and 25 μA DMEM-10% FBS. For each Ab, the final concentrations tested were 20, 4, 0.8, 0.16, 0.03, 0.006, 0.0013, 0.0003 μg/ml. Each Ab concentration was tested in triplicate. A human anti-hapten Ab, LZ1, was used as negative control Ab. A non-Wnt3a-conditioned medium from parental L-cells was used as negative control inducer. The plates were returned to the incubator. Luciferase activity was measured on day 3, using Promega Steady Glo kit (VWR #PAE2550-A) according to the manufacturer specifications. The results were expressed in photons per sec. GraphPad Prism software was used to graph and analyze the data. Luciferase activities were plotted as a function of Ab concentration to establish dose-response curves. A non-linear regression was applied to the numbers to fit the curve and calculate IC50s.

Cytokeratin 7 = Cytokeratin 7 immunohistochemistry on treated C28 tumors; format: in vivo, Nod-Scid mice; details: tumors harvested after treatment, 15 mg/kg twice per week
Procedure: Following treatment of the animals in the experiment shown in FIG. 58, tumors were harvested, fixed in formalin, embedded in paraffin, and cut in 5 micron sections. Tumor sections were analyzed for Cytokeratin 7 expression, a marker of colon cell differentiation, by immunohistochemistry (Vectastain kit, Vector Labs). Cytokeratin 7 expression was seen to be elevated after treatment with 44R24 or 18R5 (FIG. 59).

Wnt target genes = experiment: qPCR of Wnt target genes in tumor of OMP-PN13-bearing mice; format: in vivo, NOD/SCID mice
Procedure: Frozen OMP-PN13 tumor cells that have been passaged twice in mice were obtained from Oncomed's tumor bank. They were thawed and injected subcutaneously into the left flank of NOD/SCID mice immediately following thawing. ˜ 25,000 viable cells were injected per animal. The mice were monitored weekly for tumor growth. After their onset, the size of the tumors was measured once weekly by caliper. 200-300 mm^3 tumor-bearing mice were dispatched in treatment groups that each contained 5 animals. […] Ab treatment was initiated the day after randomization. LZ1 was used as the negative control Ab. 3 doses of 10 mg/kg of Ab were administered via intra-peritoneal injection over a 12-day period. Mice were euthanized 24 hours after the last injection. Tumor, duodenum and liver were harvested.
Total RNAs were also extracted from tumor, duodenum and liver for Wnt target gene expression analyses using qPCR.
Tissues were immediately transferred into RNAlater (QIAGEN) at the time of harvest. RNA was extracted using the QIAGEN RNeasy for Fibrous Tissue mini kit according to the manufacturer instructions. […] All 5 tumors of each treatment group were analyzed. […] ABI SDS 2.2.1 software was used to analyze the data and calculate DeltaCt values that were converted into relative quantities. […] Fold inhibition factors were then calculated relative to control antibody (LZ1).

FZD8 [1] = target: T1, FZD8 (Homo sapiens, UniProt Q9H461, H70A/Q71E); experiment: Epitope mapping by FACS on FZD8 Fri domain variants on HEK293 cells; format: binding; details: residues 70-71 changed from HQ to AE
T1 construct: N-terminus of the Fri domain of FZD8 in turn fused to the transmembrane domain and intracellular domain of CD4 protein; expressed in transfected cells; host or cells: HEK293
T1 sequence (Q9H461 28-158 H70A/Q71E): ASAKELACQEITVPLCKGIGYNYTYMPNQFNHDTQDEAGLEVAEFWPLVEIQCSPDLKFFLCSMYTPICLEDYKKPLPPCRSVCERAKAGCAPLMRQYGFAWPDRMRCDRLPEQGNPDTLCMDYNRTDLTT
Procedure: (§1) To identify the FZD epitope recognized by the 18R8 IgG antibody, epitope mapping was performed. Flow cytometry analysis of cell surface expressed FZD was utilized to measure antibody binding. Mammalian expression plasmid vectors comprising a CMV promoter upstream of polynucleotides that encode an N-terminal signal sequence FLAG epitope tag fused to the N-terminus of the Fri domain of FZD8 in turn fused to the transmembrane domain and intracellular domain of CD4 protein were generated by standard recombinant technology. This expression construct allows expression of the FZD8 Fri domain on the cell surface, as well as expression of a FLAG epitope tag to monitor expression. Site-direct mutagenesis was then used to modify selected amino acids within the extracellular domain of FZD. HEK293 cells were co-transfected with expression vectors encoding the FZD and the transfection marker GFP. Forty-eight hours post-transfection, cells were collected in suspension and incubated on ice with anti-FZD antibody or control IgG to detect background antibody binding. The cells were washed and primary antibodies detected with anti-antibody secondary antibodies conjugated to a fluorescent chromophore. Labeled cells were then analyzed by flow cytometry to measure the binding of anti-FZD antibody to cell surface FZD.
(§2) Epitope mapping for the anti-FZD antibody 44R24 was performed in a manner similar to that described above in Example 5 for the antibodies 18R8 and 18R5. The ability of 44R24 to bind to a similar epitope as 18R8 was assessed by flow cytometry using a series of amino acid variants of FZD8 previously shown to disrupt binding of 18R8 (see Example 5 and FIGS. 6 and 7).

FZD8 [2] = target: T2, FZD8 (Homo sapiens, UniProt Q9H461, E68Q/V69L); experiment: as above; format: binding; details: amino acids 68-69 mutated from EV to QL
T2 construct: N-terminus of the Fri domain of FZD8 in turn fused to the transmembrane domain and intracellular domain of CD4 protein; expressed in transfected cells; host or cells: HEK293
T2 sequence (Q9H461 28-158 E68Q/V69L): T1 sequence (Q9H461 28-158 H70A/Q71E) with E41Q, V42L, A43H, E44Q
Procedure: as §1, §2

FZD8 [3] = target: T3, FZD8 (Homo sapiens, UniProt Q9H461, G66A/L67A); experiment: as above; format: binding; details: amino acids 66-67 mutated from GL to AA
T3 construct: N-terminus of the Fri domain of FZD8 in turn fused to the transmembrane domain and intracellular domain of CD4 protein; expressed in transfected cells; host or cells: HEK293
T3 sequence (Q9H461 28-158 G66A/L67A): T1 sequence (Q9H461 28-158 H70A/Q71E) with G39A, L40A, A43H, E44Q
Procedure: as §1, §2

Row | Molecule | IC50 (Wnt signaling) | Cytokeratin 7 expression (Cytokeratin 7) | inhibition of Wnt target gene in tumor (Wnt target genes; relative to LZ1) | binding to FZD8 variant (FZD8 [1]) | binding to FZD8 variant (FZD8 [2]) | binding to FZD8 variant (FZD8 [3]) | IC50 relative to 18R5's (Wnt signaling) | tumor Axin2 (Wnt target genes; fold relative to control antibody LZ1, 3 doses of 10 mg/kg over 12 days)
1 | B1 | 2.73 nM | elevated | 2.3 × | reduced staining | reduced staining | reduced staining | – | –
2 | B2 | – | – | – | clearly diminished | similarly lost | similarly lost | – | –
3 | B3 | 34.4 nM | elevated | – | – | – | – | 13 fold | −1.8x
